According to article PMC11081511:

System: Phloem protein 2 (PP2), 26 kDa major variant (cucumber)
Assay: northwestern
Conditions: Northwestern: 10 mM Tris-HCl pH 7.5, 1 mM EDTA, 100 mM NaCl, 0.02% Ficoll 400, 0.02% PVP-40, 1% BSA, 5 pmol probe, 50 ug/ml yeast tRNA, renaturation 25 C. …

Substance | binding signal (fold vs PEMV2) | binding signal (reference for fold values)
CY1 D-RNA | 10 | 
CY1 full-length RNA | 7.5 | 
PEMV2 RNA |  | 1
